Changes are numbered by the printed parent chain. Numbers in names are those of the source.
B1: C5A (XPA23) VH M57Q (antibody, V domains shown)
VH: EVQLLESGGGLVQPGGSLRLSCAASGFTFSKYFMFWVRQAPGKGLEWVSVISPSGGQTRYADSVKGRFTISRDNSKNTLYLQMNSLRAEDTAVYYCARVGYGGNSDYWGQGTLVTVSS
VL: DIQMTQSPSSVSASVGDRLTIICRASQDINRWLAWYQQTPGNAPKLLIHSATSLQSGVPSRFSGSGSGTDFTLTINSLQPEDFATYYCQQADSFPLTFGGGTKVEIK
B2: C5A (XPA23) VH G100H (antibody, V domains shown)
VH: B1 VH with Q57M, G100H
VL: B1 VL
B3: C5A (XPA23) VH T58R (antibody, V domains shown)
VH: B1 VH with Q57M, T58R
VL: B1 VL
B4: C5A (XPA23) VH G102N (antibody, V domains shown)
VH: B1 VH with Q57M, G102N
VL: B1 VL
B5: C5A (XPA23) VH N104H (antibody, V domains shown)
VH: B1 VH with Q57M, N104H
VL: B1 VL
B6: C5A (XPA23) VH R59S (antibody, V domains shown)
VH: B1 VH with Q57M, R59S
VL: B1 VL
B7: C5A (XPA23) VH R59N (antibody, V domains shown)
VH: B1 VH with Q57M, R59N
VL: B1 VL
B8: C5A (XPA23) VH N104T (antibody, V domains shown)
VH: B1 VH with Q57M, N104T
VL: B1 VL
B9: C5A (XPA23) VH Y101N (antibody, V domains shown)
VH: B1 VH with Q57M, Y101N
VL: B1 VL
B10: C5A (XPA23) VH Y101Q (antibody, V domains shown)
VH: B1 VH with Q57M, Y101Q
VL: B1 VL
B11: C5A (XPA23) VH Y101T (antibody, V domains shown)
VH: B1 VH with Q57M, Y101T
VL: B1 VL
B12: C5A (XPA23) VH Y101H (antibody, V domains shown)
VH: B1 VH with Q57M, Y101H
VL: B1 VL
B13: C5A (XPA23) VH M57Y (antibody, V domains shown)
VH: B1 VH with Q57Y
VL: B1 VL
B14: C5A (XPA23) VH T58S (antibody, V domains shown)
VH: B1 VH with Q57M, T58S
VL: B1 VL
B15: C5A (XPA23) VH R59K (antibody, V domains shown)
VH: B1 VH with Q57M, R59K
VL: B1 VL
B16: C5A (XPA23) VH T58D (antibody, V domains shown)
VH: B1 VH with Q57M, T58D
VL: B1 VL
B17: C5A (XPA23) VH V99T (antibody, V domains shown)
VH: B1 VH with Q57M, V99T
VL: B1 VL
B18: C5A (XPA23) VH G100S (antibody, V domains shown)
VH: B1 VH with Q57M, G100S
VL: B1 VL
B19: C5A (XPA23) VH R59T (antibody, V domains shown)
VH: B1 VH with Q57M, R59T
VL: B1 VL
B20: C5A (XPA23) VH T58N (antibody, V domains shown)
VH: B1 VH with Q57M, T58N
VL: B1 VL
B21: C5A (XPA23) VH R59Q (antibody, V domains shown)
VH: B1 VH with Q57M, R59Q
VL: B1 VL
B22: C5A (XPA23) VH T58H (antibody, V domains shown)
VH: B1 VH with Q57M, T58H
VL: B1 VL
B23: C5A (XPA23) VH G100Y (antibody, V domains shown)
VH: B1 VH with Q57M, G100Y
VL: B1 VL
B24: C5A (XPA23) VH T58Y (antibody, V domains shown)
VH: B1 VH with Q57M, T58Y
VL: B1 VL
B25: C5A (XPA23) VH Y101R (antibody, V domains shown)
VH: B1 VH with Q57M, Y101R
VL: B1 VL
B26: C5A (XPA23) VH Y101E (antibody, V domains shown)
VH: B1 VH with Q57M, Y101E
VL: B1 VL
B27: C5A (XPA23) VH N104S (antibody, V domains shown)
VH: B1 VH with Q57M, N104S
VL: B1 VL
B28: C5A (XPA23) VH G100T (antibody, V domains shown)
VH: B1 VH with Q57M, G100T
VL: B1 VL

target: binding partner of C5A (XPA23); experiment: Biacore, K-off

Row | Binder | fold difference in affinity vs original
1 | B1 | 0.02 fold
2 | B2 | 0.06 fold
3 | B3 | 1.14 fold
4 | B4 | 1.17 fold
5 | B5 | 0.07 fold
6 | B6 | 0.13 fold
7 | B7 | 0.86 fold
8 | B8 | 0.95 fold
9 | B9 | 0.06 fold
10 | B10 | 0.06 fold
11 | B11 | 0.06 fold
12 | B12 | 0.04 fold
13 | B13 | 0.86 fold
14 | B14 | 0.82 fold
15 | B15 | 0.94 fold
16 | B16 | 0.12 fold
17 | B17 | 0.1 fold
18 | B18 | 2.8 fold
19 | B19 | 0.76 fold
20 | B20 | 0.9 fold
21 | B21 | 0.86 fold
22 | B22 | 0.98 fold
23 | B23 | 0.09 fold
24 | B24 | 1.01 fold
25 | B25 | 0.85 fold
26 | B26 | 0.03 fold
27 | B27 | 1.02 fold
28 | B28 | 0.12 fold

target: binding partner of C5A (XPA23); experiment: Biacore

Row | Binder | fold affinity vs original | fold difference in affinity vs original
29 | B1 | 0.02 fold | 
30 | B2 | 0.06 fold | 
31 | B3 | 1.14 fold | 
32 | B4 | 1.17 fold | 
33 | B5 | 0.07 fold | 
34 | B6 | 0.13 fold | 
35 | B7 | 0.86 fold | 
36 | B8 |  | 0.95 fold
37 | B9 | 0.06 fold | 
38 | B10 | 0.06 fold | 
39 | B11 |  | 0.06 fold
40 | B12 | 0.04 fold | 
41 | B13 | 0.86 fold | 
42 | B14 | 0.82 fold | 
43 | B15 | 0.94 fold | 
44 | B16 | 0.12 fold | 
45 | B17 |  | 0.1 fold
46 | B18 | 2.8 fold | 
47 | B19 |  | 0.76 fold
48 | B20 | 0.9 fold | 
49 | B21 | 0.86 fold | 
50 | B22 | 0.98 fold | 
51 | B23 | 0.09 fold | 
52 | B24 | 1.01 fold | 
53 | B25 | 0.85 fold | 
54 | B26 | 0.03 fold | 
55 | B27 | 1.02 fold | 
56 | B28 |  | 0.12 fold

Reference: patent US20110118447A1
